Laboratory results from the RNAGym collection of RNA variant scans (doi:10.7554/elife.80360).

B1: HDV Ribozyme (parent)
chain: GGCCGGCAUGGUCCCAGCCUCCUCGCUGGCGCCGGCUGGGCAACAUUCCGAGGGGACCGUCCCCUCGGUAAUGGCGAAUGGGACCCA

Variants of: B1
Experiment: self-cleavage, relative activity (ratio to wild type); higher = more cleavage; co-transcriptional

Row | Variant | self-cleavage
1 | GGCCGGCAUGGUCCCAGCCUCCUCGCUGGCGCCGGCUGGGCAACAUUCGGAGGGGACCGUCCCCUCGGUAAUGGCGAAAGGGACCCA [C49G U79A] | 0.895
2 | GGCCGGCAUGGUCCCAGCCUCCUCGCUGGCGCCGGCUGGGCAACAUUCGGAGGGGACCGUCCCCUCGGUAAUGGCGAAGGGGACCCA [C49G U79G] | 0.762
3 | GGCCGGCAUGGUCCCAGCCUCCUCGCUGGCGCCGGCUGGGCAACAUUCUGAGGGGGCCGUCCCCUCGGUAAUGGCGAAUGGGACCCA [C49U A56G] | 1.04
4 | GGCCGGCAUGGUCCCAGCCUCCUCGCUGGCGCCGGCUGGGCAACAUUCUGAGGGGCCCGUCCCCUCGGUAAUGGCGAAUGGGACCCA [C49U A56C] | 0.773
5 | GGCCGGCAUGGUCCCAGCCUCCUCGCUGGCGCCGGCUGGGCAACAUUCUGAGGGGACCGUCCUCUCGGUAAUGGCGAAUGGGACCCA [C49U C63U] | 0.958
6 | GGCCGGCAUGGUCCCAGCCUCCUCGCUGGCGCCGGCUGGGCAACAUUCGGAGGGGACCGUCCCCUCGGUAAAGGCGAAUGGGACCCA [C49G U72A] | 0.0692
7 | GGCCGGCAUGGUCCCAGCCUCCUCGCUGGCGCCGGCUGGGCAACAUUCGGAGGGGACCGUCCCCUCGGUAAGGGCGAAUGGGACCCA [C49G U72G] | 0.604
8 | GGCCGGCAUGGUCCCAGCCUCCUCGCUGGCGCCGGCUGGGCAACAUUCUGAGGGGACCGUCCCCUAGGUAAUGGCGAAUGGGACCCA [C49U C66A] | 0.984
9 | GGCCGGCAUGGUCCCAGCCUCCUCGCUGGCGCCGGCUGGGCAACAUUCGGAGGGGACCGUCCCCUCGUUAAUGGCGAAUGGGACCCA [C49G G68U] | 0.808
10 | GGCCGGCAUGGUCCCAGCCUCCUCGCUGGCGCCGGCUGGGCAACAUUCGGAGGGUACCGUCCCCUCGGUAAUGGCGAAUGGGACCCA [C49G G55U] | 0.844
11 | GGCCGGCAUGGUCCCAGCCUCCUCGCUGGCGCCGGCUGGGCAACAUUCUGAGGGGACCGUCCCCUCGGUAAUGGCGAGUGGGACCCA [C49U A78G] | 0.692
12 | GGCCGGCAUGGUCCCAGCCUCCUCGCUGGCGCCGGCUGGGCAACAUUCGGAGGGGACCGUCCCCUCGGUAAUGGCGAAUGGAACCCA [C49G G82A] | 0.0966
13 | GGCCGGCAUGGUCCCAGCCUCCUCGCUGGCGCCGGCUGGGCAACAUUCUGAGGGGAUCGUCCCCUCGGUAAUGGCGAAUGGGACCCA [C49U C57U] | 1.18
14 | GGCCGGCAUGGUCCCAGCCUCCUCGCUGGCGCCGGCUGGGCAACAUUCUGAGGGGAGCGUCCCCUCGGUAAUGGCGAAUGGGACCCA [C49U C57G] | 1.19
15 | GGCCGGCAUGGUCCCAGCCUCCUCGCUGGCGCCGGCUGGGCAACAUUCUGUGGGGACCGUCCCCUCGGUAAUGGCGAAUGGGACCCA [C49U A51U] | 0.867
16 | GGCCGGCAUGGUCCCAGCCUCCUCGCUGGCGCCGGCUGGGCAACAUUCUGCGGGGACCGUCCCCUCGGUAAUGGCGAAUGGGACCCA [C49U A51C] | 0.712
17 | GGCCGGCAUGGUCCCAGCCUCCUCGCUGGCGCCGGCUGGGCAACAUUCUGAGGGGACCGUCCCCUCGGUAAUGGGGAAUGGGACCCA [C49U C75G] | 0.0723
18 | GGCCGGCAUGGUCCCAGCCUCCUCGCUGGCGCCGGCUGGGCAACAUUCUGAGGGGACCGUCCCCUCGGUAAUGGUGAAUGGGACCCA [C49U C75U] | 0.13
19 | GGCCGGCAUGGUCCCAGCCUCCUCGCUGGCGCCGGCUGGGCAACAUUCGGAGGGGACCGUCCCCUAGGUAAUGGCGAAUGGGACCCA [C49G C66A] | 0.773
20 | GGCCGGCAUGGUCCCAGCCUCCUCGCUGGCGCCGGCUGGGCAACAUUCGGAGGGGACUGUCCCCUCGGUAAUGGCGAAUGGGACCCA [C49G C58U] | 1.05
21 | GGCCGGCAUGGUCCCAGCCUCCUCGCUGGCGCCGGCUGGGCAACAUUCGGAGGGGACCGUCCCCUCGGUAAUGGCCAAUGGGACCCA [C49G G76C] | 0.982
22 | GGCCGGCAUGGUCCCAGCCUCCUCGCUGGCGCCGGCUGGGCAACAUUCGGAGGGGACCGUCCCCUCGGUAAUGGGGAAUGGGACCCA [C49G C75G] | 0.299

Row | Variant | self-cleavage
23 | GGCCGGCAUGGUCCCAGCCUCCUCGCUGGCGCCGGCUGGGCAACAUUCGGAGGGGACCGUCCCCUCAGUAAUGGCGAAUGGGACCCA [C49G G67A] | 0.637
24 | GGCCGGCAUGGUCCCAGCCUCCUCGCUGGCGCCGGCUGGGCAACAUUCGGAGGGGACCGUCCCCUCUGUAAUGGCGAAUGGGACCCA [C49G G67U] | 0.9
25 | GGCCGGCAUGGUCCCAGCCUCCUCGCUGGCGCCGGCUGGGCAACAUUCUGAGGGGACCGUCGCCUCGGUAAUGGCGAAUGGGACCCA [C49U C62G] | 0.665
26 | GGCCGGCAUGGUCCCAGCCUCCUCGCUGGCGCCGGCUGGGCAACAUUCGGAUGGGACCGUCCCCUCGGUAAUGGCGAAUGGGACCCA [C49G G52U] | 0.48
27 | GGCCGGCAUGGUCCCAGCCUCCUCGCUGGCGCCGGCUGGGCAACAUUCGGAGGGGACCGUCCCCUCGGUAAUGGCGAAUAGGACCCA [C49G G80A] | 0.465
28 | GGCCGGCAUGGUCCCAGCCUCCUCGCUGGCGCCGGCUGGGCAACAUUCGGAGGGGACCGUCCCCUCGGUAAUGGCGAAUUGGACCCA [C49G G80U] | 0.123
29 | GGCCGGCAUGGUCCCAGCCUCCUCGCUGGCGCCGGCUGGGCAACAUUCGGAGGGGACCGUCCCCUCGGUAAUGGCGAAUCGGACCCA [C49G G80C] | 0.178
30 | GGCCGGCAUGGUCCCAGCCUCCUCGCUGGCGCCGGCUGGGCAACAUUCUGAGGGGACCGUCCCCUCGGUAAUGGCGGAUGGGACCCA [C49U A77G] | 0.95
31 | GGCCGGCAUGGUCCCAGCCUCCUCGCUGGCGCCGGCUGGGCAACAUUCUGAGGGGACCGUCCCCUCGGUAAUGGCGUAUGGGACCCA [C49U A77U] | 0.297
32 | GGCCGGCAUGGUCCCAGCCUCCUCGCUGGCGCCGGCUGGGCAACAUUCGGAGGGGACCGUCUCCUCGGUAAUGGCGAAUGGGACCCA [C49G C62U] | 0.831
33 | GGCCGGCAUGGUCCCAGCCUCCUCGCUGGCGCCGGCUGGGCAACAUUCGGAGGGGACCGUCACCUCGGUAAUGGCGAAUGGGACCCA [C49G C62A] | 0.739
34 | GGCCGGCAUGGUCCCAGCCUCCUCGCUGGCGCCGGCUGGGCAACAUUCGGAGGGGACCGUUCCCUCGGUAAUGGCGAAUGGGACCCA [C49G C61U] | 0.432
35 | GGCCGGCAUGGUCCCAGCCUCCUCGCUGGCGCCGGCUGGGCAACAUUCGGAGGGGACCGUACCCUCGGUAAUGGCGAAUGGGACCCA [C49G C61A] | 0.848
36 | GGCCGGCAUGGUCCCAGCCUCCUCGCUGGCGCCGGCUGGGCAACAUUCGGAGGGGACCGUCCCCUCGGCAAUGGCGAAUGGGACCCA [C49G U69C] | 0.898
37 | GGCCGGCAUGGUCCCAGCCUCCUCGCUGGCGCCGGCUGGGCAACAUUCGGAGGGGACCGUCCCCUCGGGAAUGGCGAAUGGGACCCA [C49G U69G] | 0.831
38 | GGCCGGCAUGGUCCCAGCCUCCUCGCUGGCGCCGGCUGGGCAACAUUCGGAGGGGACCGUCCCCUCGGAAAUGGCGAAUGGGACCCA [C49G U69A] | 0.798
39 | GGCCGGCAUGGUCCCAGCCUCCUCGCUGGCGCCGGCUGGGCAACAUUCUGAGGGGACCGUCCCCUCGGUAAUGGCGAAUGGGAUCCA [C49U C84U] | 0.676
40 | GGCCGGCAUGGUCCCAGCCUCCUCGCUGGCGCCGGCUGGGCAACAUUCGGAGGGGACCGUCCCCUCGGUAAUGGCGAAUGCGACCCA [C49G G81C] | 0.196
41 | GGCCGGCAUGGUCCCAGCCUCCUCGCUGGCGCCGGCUGGGCAACAUUCGGAGCGGACCGUCCCCUCGGUAAUGGCGAAUGGGACCCA [C49G G53C] | 0.249
42 | GGCCGGCAUGGUCCCAGCCUCCUCGCUGGCGCCGGCUGGGCAACAUUCGGAGUGGACCGUCCCCUCGGUAAUGGCGAAUGGGACCCA [C49G G53U] | 0.723
43 | GGCCGGCAUGGUCCCAGCCUCCUCGCUGGCGCCGGCUGGGCAACAUUCGGAGAGGACCGUCCCCUCGGUAAUGGCGAAUGGGACCCA [C49G G53A] | 0.475
44 | GGCCGGCAUGGUCCCAGCCUCCUCGCUGGCGCCGGCUGGGCAACAUUCUGAGGGGACCGUACCCUCGGUAAUGGCGAAUGGGACCCA [C49U C61A] | 0.76

Row | Variant | self-cleavage
45 | GGCCGGCAUGGUCCCAGCCUCCUCGCUGGCGCCGGCUGGGCAACAUUCUGAGGGGACCGUGCCCUCGGUAAUGGCGAAUGGGACCCA [C49U C61G] | 0.731
46 | GGCCGGCAUGGUCCCAGCCUCCUCGCUGGCGCCGGCUGGGCAACAUUCUGAGGGGACCGUCCCCUCGGUAAUGGCGAAUGGGACCCC [C49U A87C] | 1.05
47 | GGCCGGCAUGGUCCCAGCCUCCUCGCUGGCGCCGGCUGGGCAACAUUCGGAGGGGACCGUCCCCUCGGUAAUGGCGAAUGGGACUCA [C49G C85U] | 0.912
48 | GGCCGGCAUGGUCCCAGCCUCCUCGCUGGCGCCGGCUGGGCAACAUUCGGAGGGGACCGUCCCCUCGGUAAUGGCGAAUGGGACACA [C49G C85A] | 0.789
49 | GGCCGGCAUGGUCCCAGCCUCCUCGCUGGCGCCGGCUGGGCAACAUUCGGAGGGGACCGUCCCCUCGGUAAUGGCGAAUGGGACGCA [C49G C85G] | 0.712
50 | GGCCGGCAUGGUCCCAGCCUCCUCGCUGGCGCCGGCUGGGCAACAUUCUGAGGGGACCGUCCCCUCGGUCAUGGCGAAUGGGACCCA [C49U A70C] | 0.782
51 | GGCCGGCAUGGUCCCAGCCUCCUCGCUGGCGCCGGCUGGGCAACAUUCUGAGGGGACCGUCCCCUCGGUUAUGGCGAAUGGGACCCA [C49U A70U] | 0.877
52 | GGCCGGCAUGGUCCCAGCCUCCUCGCUGGCGCCGGCUGGGCAACAUUCUGAGGGGACCGUCCCCUCGGUGAUGGCGAAUGGGACCCA [C49U A70G] | 0.748
53 | GGCCGGCAUGGUCCCAGCCUCCUCGCUGGCGCCGGCUGGGCAACAUUCGGAGGGGACCGUCCCGUCGGUAAUGGCGAAUGGGACCCA [C49G C64G] | 0.308
54 | GGCCGGCAUGGUCCCAGCCUCCUCGCUGGCGCCGGCUGGGCAACAUUCGGAGGGGACCUUCCCCUCGGUAAUGGCGAAUGGGACCCA [C49G G59U] | 0.889
55 | GGCCGGCAUGGUCCCAGCCUCCUCGCUGGCGCCGGCUGGGCAACAUUCGGAGGGGACCCUCCCCUCGGUAAUGGCGAAUGGGACCCA [C49G G59C] | 0.793
56 | GGCCGGCAUGGUCCCAGCCUCCUCGCUGGCGCCGGCUGGGCAACAUUCGGAGGGGACCGUCCCCUCGGUAAUGGCGAAUGGGACCUA [C49G C86U] | 0.831
57 | GGCCGGCAUGGUCCCAGCCUCCUCGCUGGCGCCGGCUGGGCAACAUUCGGAGGGGACCGUCCCCUCGGUAAUGGCGAAUGGGACCAA [C49G C86A] | 0.966
58 | GGCCGGCAUGGUCCCAGCCUCCUCGCUGGCGCCGGCUGGGCAACAUUCGGAGGGGACCGUCCCCGCGGUAAUGGCGAAUGGGACCCA [C49G U65G] | 0.489
59 | GGCCGGCAUGGUCCCAGCCUCCUCGCUGGCGCCGGCUGGGCAACAUUCGGAGGGGACCGUCCCCACGGUAAUGGCGAAUGGGACCCA [C49G U65A] | 0.573
60 | GGCCGGCAUGGUCCCAGCCUCCUCGCUGGCGCCGGCUGGGCAACAUUCUGAGGGGACCGUCCCCUCGGUAAUGGCGAAUGGGACGCA [C49U C85G] | 0.876
61 | GGCCGGCAUGGUCCCAGCCUCCUCGCUGGCGCCGGCUGGGCAACAUUCUGAGGGGACCGUCCCUUCGGUAAUGGCGAAUGGGACCCA [C49U C64U] | 1.05
62 | GGCCGGCAUGGUCCCAGCCUCCUCGCUGGCGCCGGCUGGGCAACAUUCUGAGGGGACCGUCCCCUCGGUAGUGGCGAAUGGGACCCA [C49U A71G] | 1.16
63 | GGCCGGCAUGGUCCCAGCCUCCUCGCUGGCGCCGGCUGGGCAACAUUCUGAGGGGACCGUCCCCUCGGUAUUGGCGAAUGGGACCCA [C49U A71U] | 0.875
64 | GGCCGGCAUGGUCCCAGCCUCCUCGCUGGCGCCGGCUGGGCAACAUUCUGAGGGGACCGUCCCCUCGGUACUGGCGAAUGGGACCCA [C49U A71C] | 0.641
